Tested on: MS2 coat protein
Assay: apparent KD of MS2 coat protein; designed switch direction (-1 OFF switch, 1 ON switch): 1; higher = weaker reporter binding
Summary of the method: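 Normalised cluster fluorescence was curve-fitted, and each design's median over clusters is its apparent KD. Before this, SNAP-549-labelled MS2 coat protein was titrated from 0.7 or 1.5 nM, doubling to 3 µM, over RNA switches transcribed on Illumina chips by stalled E. coli RNA polymerase. Titrations had no input, 200 uM small-molecule ligand, or an oligonucleotide input, and steps lasted 0.8–1.5 h (lowest) to 10–20 min (highest).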

[1] = Eterna round: R95, input ligand: FMN 200 uM
[2] = Eterna round: R95, input ligand: microRNA oligo, concentration not stated
[3] = Eterna round: R95, input ligand: none
[4] = input ligand: microRNA oligo, concentration not stated

Sequence	apparent KD of MS2 coat protein [1]	apparent KD of MS2 coat protein [2]	apparent KD of MS2 coat protein [3]	apparent KD of MS2 coat protein (input ligand: FMN 200 uM)	apparent KD of MS2 coat protein [4]	apparent KD of MS2 coat protein (input ligand: none)
AAAAGAAGAAUGUAGGAUAUACAAAAGAACACAUGAGGAUCACCCAUGUGAGCCUAAUGUAAGAAGUAGAAGGACAAAGAGAAAA [Default title] (puzzle: Same State 2)	91.3 nM	62 nM	67.3 nM			
AAAAGACAAAGAAAACAUGAGGAUCACCCAUGUGGCGUGACACAGGAUAUCCACGCUACAUUGCAGGAGAAGGGUGACAUGCAC [Ensora] (Eterna round: R96, puzzle: Same State NG 3)				484 nM	273 nM	383 nM
AAAAUAAAUGCGAAAAUUAACCGCAACUGACAUGAGGAUCACCCAUGUGCUUCAAGCUCAGGCAUCUCUUAUCGUCA [Maares] (Eterna round: R96, puzzle: Sensor for hsa-mir-208a)				112 nM	67.9 nM	105 nM
AAAAUACAUGAGGAUCACCCAUGUCUAAAGAACGGAGGAUAUAGGCGUGCAAAACACGCACUAGAAGGCUGGGUGC [Eserus] (puzzle: Same State 1)	144 nM	92.3 nM	220 nM			
AAAAUGGUAUGUUACAUGAGGAUCACCCAUGUACCGUAAUCUGAGGAUAUGGUGAUGUAGAAGAAUCAGAAGGCAGACAUUUAA [AK SSNG3-V2-24.2] (Eterna round: R96, puzzle: Same State NG 3)				19.2 nM	26.7 nM	36.1 nM
AAACACAUGAGGAUCACCCAUGUAGCGCCAUUAAAGCGCACAUAGGAUAUCCGGUCCUAAAGACCGGAGAAGGGUGAAAGAAAA [Zara] (Eterna round: R96, puzzle: Same State NG 3)				54.8 nM	76.2 nM	121 nM
AAACAUGAGCGAGGAUAUACGGAGGAUCACCCUGUAGAAGGCGCAUGUAAAACAACAUGAGGAUCACCCAUGUCAUGUACAUGA (Eterna round: R96, puzzle: Same State NG 1)				24.8 nM	23.4 nM	33.6 nM
AAACGCAGCAUAUCGCUGCGACAUGAGGAUCACCCAUGUACACAGGAUAUCGCGGCAUACCGCCACGAGAAGGGUGAUCAAGAC [Vebixeriso] (Eterna round: R96, puzzle: Same State NG 3)				676 nM	82.9 nM	45.2 nM
AAACGGUCGCUGCGGCGGCCACAUGAGGAUCACCCAUGUACAUAGGAUAUCGCCUAAAAUACUGGCGAGAAGGGUGAUUAAAGA [Ergegeti] (Eterna round: R96, puzzle: Same State NG 3)				132 nM	36.2 nM	79.4 nM
AAACUAGGCGGUCCAACAUGAGGAUCACCCAUGUAAAAUUCAUAGGAUAUGCCUAUAGAAACAAGGCAGAAGGGUGAGACCGCA [Atsoorle] (Eterna round: R96, puzzle: Same State NG 3)				68.6 nM	93.7 nM	134 nM
AAAGGAUGAUGUUACAUGAGGAUCACCCAUGUUGUGAUAACUAAGGAUAUGUGUUAAACCAGUUAAUAGAAGGUAGGAUCAUAA [AK SSNG3-V2-5] (Eterna round: R96, puzzle: Same State NG 3)				182 nM	77.1 nM	112 nM
AACAAUCUAUCUCAGGAUAUCAUGUCAAAGACAUGAGGAUCACCCAUGUACCAGGAAACUGGUUAUGAGAAGGGAGAUAGAUUGG [Mat - Same State 2 - Mod - D28] (puzzle: Same State 2)	161 nM	438 nM	197 nM			
AACAAUCUAUCUGAGGAUAUCAUGAAAUAAACAUGAGGAUCACCCAUGUGCAGGAAAACUGCAUAUGAGAAGGUAGAUAGAUUGA [salish99_ss2_r3_050] (puzzle: Same State 2)	176 nM	140 nM	218 nM			
AACAAUCUAUCUGAGGAUAUCAUGAAAUAAACAUGAGGAUCACCCAUGUGCAGGAAAACUGCAUAUUAGAAGGCAGAUAGAUUGA [salish99_ss2_r3_049] (puzzle: Same State 2)	163 nM	38.8 nM	151 nM			
AACAAUCUAUCUGAGGAUAUCAUGAAAUAAACAUGAGGAUCACCCAUGUGCAGGAAAACUUCAUAUGAGAAGGCAGAUAGAUUGA [salish99_ss2_r3_045] (puzzle: Same State 2)	17.5 nM	27.7 nM	26.4 nM			
AACAAUCUAUCUGAGGAUAUCAUGAGAAGAACAUGAGGAUCACCCAUGUGCAGGAAAACUGCAUAUGAGAAGGCAGAUAGAUUGG [Mat - Same State 2 - Mod - D18] (puzzle: Same State 2)	52.8 nM	621 nM	1950 nM			
AACGGCAGAUGAGGAUAUACUUGCCAUGCGAGCACGCUCGCUACAUGAGGAUCACCCAUGUAUGGGUAGAAGGCAUCAUGAUAC [Eternabot solution 39] (Eterna round: R96, puzzle: Same State NG 2)				89.6 nM	102 nM	243 nM
AAGACAUUUGCUUAGGAUAUACAGGGCUCCACAUGAGGAUCACCCAUGUUAAAAGAGGAGUAAAUGUAGAAGGAAGCCUCCAAUA [Zazaes] (puzzle: Same State 2)	19.1 nM	59.8 nM	66.3 nM			
AAGGGAUGAGCGUAGGAUAUAGGAGAAGUGACAUGAGGAUCACCCAUGUAGGAGGAGGGAUGAGACUAGAAGGACGAGGUAGGAG [JR_SS2_Sub060] (puzzle: Same State 2)	43.6 nM	56.7 nM	76.8 nM			
AAGUAACAUGAGGAUCACCCAUGUGAGGUGAGCGUAGGAUAUCGAGAAGGAAGGGUGGAGCGAGAAGGACGAGGGA [JR_SS1_Sub0101] (puzzle: Same State 1)	565 nM	463 nM	389 nM			
AAUAUACAUGAGGAUCACCCAUGUUAGUAAAUGACAGGAUAUCGAAUAAAUAAAUAAUAACGAGAAGGGUCUAAUA [JMF's solution 3] (puzzle: Same State 1)	15.9 nM	30.3 nM	20.8 nM			
AAUAUUUAUGCAGGAUAUGAUUAACAUGAGGAUCACCCAUGUGGUGUUGUGAGUAAGGAGAGUGAUCAGAAGGGCAUUUUUUUU [JMF's solution 73] (Eterna round: R96, puzzle: Same State NG 2)				379 nM	271 nM	463 nM
AAUCGUUUGAUAGGAUAUCGCUAUACAUGAGGAUCACCCAUGUUUACCACGCUGGUUUUUCAUACCGAGAAGGAUUCUGAUGAC [salish99_SSNG02_r04_002] (Eterna round: R96, puzzle: Same State NG 2)				26.2 nM	22.6 nM	29.8 nM

Source: the supplement of paper PMC9170038
